Values quoted from earlier work, collected in publication PMC4850115.

Molecular target: p38 (Homo sapiens) (UniProt Q16539)
Sequence of UniProt Q16539 (Q16539 2-360): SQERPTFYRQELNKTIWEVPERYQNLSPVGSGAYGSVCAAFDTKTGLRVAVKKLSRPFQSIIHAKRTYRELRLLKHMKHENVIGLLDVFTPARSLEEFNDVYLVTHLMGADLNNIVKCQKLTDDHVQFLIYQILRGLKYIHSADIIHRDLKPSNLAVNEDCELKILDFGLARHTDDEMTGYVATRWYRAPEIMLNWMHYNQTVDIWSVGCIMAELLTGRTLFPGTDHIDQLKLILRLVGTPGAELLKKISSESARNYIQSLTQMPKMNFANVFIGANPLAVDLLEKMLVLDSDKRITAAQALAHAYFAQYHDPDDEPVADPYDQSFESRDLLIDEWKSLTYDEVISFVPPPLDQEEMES

Kd: 20 nM
Substance: MK2 370-400 (from UniProt P49137)
